# Source: patent US10500249B2, “Compositions and methods for preventing or treating diseases, conditions, or processes characterized by aberrant fibroblast proliferation and extracellular matrix deposition” (MOERAE MATRIX, INC., priority 2014, dated 2019)
# Key:
# Assay in all cases: Kinase Profiling Assay
# Format in all cases: biochemical
# Details in all cases: 100 μM
# PRK2 (h) = PRK2 (h) (Homo sapiens, UniProt Q16513)
# In short: (§1)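 Measured twice per kinase, activity in presence of MK2 inhibitory peptide was calculated against a 100% activity control after radiometric phosphorylation of a cationic substrate, anionic filter capture and scintillation counting; one of 266 human kinases profiled for specificity.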
# GRK6 (h) = molecular target: T1, GRK6 (h) (Homo sapiens, UniProt P43250)
# T1 construct: purchased Millipore
# In short: as §1
# PKCε (h) = molecular target: T2, PKCε (h) (Homo sapiens, UniProt Q02156)
# T2 construct: purchased Millipore
# T2 sequence (Q02156 1-737): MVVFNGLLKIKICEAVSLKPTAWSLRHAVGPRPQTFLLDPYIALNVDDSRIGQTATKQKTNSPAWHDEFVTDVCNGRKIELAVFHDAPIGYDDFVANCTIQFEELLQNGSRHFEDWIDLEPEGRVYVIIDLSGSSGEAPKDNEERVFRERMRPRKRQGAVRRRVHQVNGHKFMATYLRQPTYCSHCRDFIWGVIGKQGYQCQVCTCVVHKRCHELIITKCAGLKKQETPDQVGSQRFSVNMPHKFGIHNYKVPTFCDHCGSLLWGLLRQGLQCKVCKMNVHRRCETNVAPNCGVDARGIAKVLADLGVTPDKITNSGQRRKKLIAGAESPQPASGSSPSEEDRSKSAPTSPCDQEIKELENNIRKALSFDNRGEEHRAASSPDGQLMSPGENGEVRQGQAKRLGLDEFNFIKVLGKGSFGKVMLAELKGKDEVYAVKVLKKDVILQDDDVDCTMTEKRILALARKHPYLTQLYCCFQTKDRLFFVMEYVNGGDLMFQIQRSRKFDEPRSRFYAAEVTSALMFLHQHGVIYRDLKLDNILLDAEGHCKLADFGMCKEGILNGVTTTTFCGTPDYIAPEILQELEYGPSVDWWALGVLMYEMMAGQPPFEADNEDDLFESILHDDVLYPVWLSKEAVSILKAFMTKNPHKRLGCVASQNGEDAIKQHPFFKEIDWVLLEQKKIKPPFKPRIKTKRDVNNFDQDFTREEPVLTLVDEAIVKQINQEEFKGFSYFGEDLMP
# In short: as §1
# WNK3 (h) = WNK3 (h) (Homo sapiens, UniProt Q9BYP7)
# In short: as §1
# PKCδ (h) = molecular target: T3, PKCδ (h) (Homo sapiens, UniProt Q05655)
# T3 construct: purchased Millipore
# In short: as §1
# CHK2(I157T) (h) = molecular target: T4, CHK2(I157T) (h) (Homo sapiens, UniProt O96017, I157T)
# T4 construct: purchased Millipore
# In short: as §1
# TAO1 (h) = molecular target: T5, TAO1 (h) (Homo sapiens, UniProt Q7L7X3)
# T5 sequence (Q7L7X3 1-1001): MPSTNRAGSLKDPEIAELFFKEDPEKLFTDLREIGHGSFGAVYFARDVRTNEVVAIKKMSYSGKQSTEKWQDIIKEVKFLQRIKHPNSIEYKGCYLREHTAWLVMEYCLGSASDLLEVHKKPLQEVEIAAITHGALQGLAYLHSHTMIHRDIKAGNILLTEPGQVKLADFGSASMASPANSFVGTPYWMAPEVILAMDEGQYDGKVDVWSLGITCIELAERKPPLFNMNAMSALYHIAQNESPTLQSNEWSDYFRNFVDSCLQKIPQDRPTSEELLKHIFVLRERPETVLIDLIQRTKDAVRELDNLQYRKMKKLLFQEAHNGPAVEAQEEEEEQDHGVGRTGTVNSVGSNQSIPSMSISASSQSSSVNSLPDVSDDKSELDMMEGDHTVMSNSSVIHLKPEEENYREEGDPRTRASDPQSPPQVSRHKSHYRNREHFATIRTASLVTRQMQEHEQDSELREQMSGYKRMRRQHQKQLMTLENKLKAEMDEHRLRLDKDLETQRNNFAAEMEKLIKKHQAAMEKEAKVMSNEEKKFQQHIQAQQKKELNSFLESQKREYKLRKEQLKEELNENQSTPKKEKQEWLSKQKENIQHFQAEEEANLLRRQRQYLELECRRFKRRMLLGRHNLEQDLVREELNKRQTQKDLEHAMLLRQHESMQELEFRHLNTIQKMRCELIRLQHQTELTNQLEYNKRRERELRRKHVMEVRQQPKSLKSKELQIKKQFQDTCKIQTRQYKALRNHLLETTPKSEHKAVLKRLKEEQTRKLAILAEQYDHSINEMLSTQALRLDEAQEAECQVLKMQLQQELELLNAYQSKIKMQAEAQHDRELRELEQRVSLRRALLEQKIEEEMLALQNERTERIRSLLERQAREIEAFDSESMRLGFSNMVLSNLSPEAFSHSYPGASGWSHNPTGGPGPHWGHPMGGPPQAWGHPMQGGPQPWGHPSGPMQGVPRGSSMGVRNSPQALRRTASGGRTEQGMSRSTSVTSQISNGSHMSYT
# In short: as §1
# SGK2 (h) = molecular target: T6, SGK2 (h) (Homo sapiens, UniProt Q9HBY8)
# T6 sequence (Q9HBY8 1-367): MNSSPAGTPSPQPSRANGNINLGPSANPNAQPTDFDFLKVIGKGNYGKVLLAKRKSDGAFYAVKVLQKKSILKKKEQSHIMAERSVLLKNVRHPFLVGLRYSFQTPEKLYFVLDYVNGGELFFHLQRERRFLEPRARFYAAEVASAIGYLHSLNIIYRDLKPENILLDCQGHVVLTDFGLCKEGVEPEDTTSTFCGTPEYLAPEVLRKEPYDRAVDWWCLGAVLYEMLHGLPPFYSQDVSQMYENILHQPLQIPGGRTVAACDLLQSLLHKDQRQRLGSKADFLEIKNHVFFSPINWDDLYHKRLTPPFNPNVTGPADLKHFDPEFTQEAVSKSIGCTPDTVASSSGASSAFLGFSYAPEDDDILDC
# In short: as §1
# Hck (h) = molecular target: T7, Hck (h) (Homo sapiens, UniProt P08631)
# T7 construct: purchased Millipore
# In short: as §1
# cKit(V654A) (h) = molecular target: T8, cKit(V654A) (h) (Homo sapiens, UniProt P10721, V654A)
# T8 construct: purchased Millipore
# In short: as §1
# PDGFRα (V561D) (h) = molecular target: T9, PDGFRα (V561D) (h) (Homo sapiens, UniProt P16234, V561D)
# T9 construct: purchased Millipore
# In short: as §1
# Sequence of PRK2 (h) (Q16513 whole entry): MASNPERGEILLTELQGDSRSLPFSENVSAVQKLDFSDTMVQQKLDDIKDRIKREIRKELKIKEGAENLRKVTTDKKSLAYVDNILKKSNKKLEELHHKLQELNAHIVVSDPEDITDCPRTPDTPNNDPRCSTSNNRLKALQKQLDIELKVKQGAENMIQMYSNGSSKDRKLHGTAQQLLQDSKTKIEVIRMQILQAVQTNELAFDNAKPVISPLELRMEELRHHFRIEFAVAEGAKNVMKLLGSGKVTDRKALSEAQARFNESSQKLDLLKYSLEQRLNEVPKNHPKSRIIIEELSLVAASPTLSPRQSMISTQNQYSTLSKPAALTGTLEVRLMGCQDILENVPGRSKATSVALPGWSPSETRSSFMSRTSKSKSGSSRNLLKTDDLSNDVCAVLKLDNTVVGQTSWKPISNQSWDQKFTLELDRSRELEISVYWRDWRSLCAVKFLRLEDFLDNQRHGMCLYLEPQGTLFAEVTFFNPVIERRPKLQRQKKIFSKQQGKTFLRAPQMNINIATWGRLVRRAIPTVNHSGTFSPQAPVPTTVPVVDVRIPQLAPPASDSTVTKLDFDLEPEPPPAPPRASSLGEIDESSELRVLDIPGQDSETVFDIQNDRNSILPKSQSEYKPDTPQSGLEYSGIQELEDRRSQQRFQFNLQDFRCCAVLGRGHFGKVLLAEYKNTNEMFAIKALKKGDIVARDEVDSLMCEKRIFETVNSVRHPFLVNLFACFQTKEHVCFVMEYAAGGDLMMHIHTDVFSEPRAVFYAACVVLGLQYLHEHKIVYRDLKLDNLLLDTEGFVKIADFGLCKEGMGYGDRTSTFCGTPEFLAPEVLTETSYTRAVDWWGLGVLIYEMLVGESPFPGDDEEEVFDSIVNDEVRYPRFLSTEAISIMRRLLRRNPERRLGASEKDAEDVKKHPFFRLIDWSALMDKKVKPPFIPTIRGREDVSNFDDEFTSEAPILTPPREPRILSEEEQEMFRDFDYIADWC
# Sequence of WNK3 (h) (Q9BYP7 whole entry): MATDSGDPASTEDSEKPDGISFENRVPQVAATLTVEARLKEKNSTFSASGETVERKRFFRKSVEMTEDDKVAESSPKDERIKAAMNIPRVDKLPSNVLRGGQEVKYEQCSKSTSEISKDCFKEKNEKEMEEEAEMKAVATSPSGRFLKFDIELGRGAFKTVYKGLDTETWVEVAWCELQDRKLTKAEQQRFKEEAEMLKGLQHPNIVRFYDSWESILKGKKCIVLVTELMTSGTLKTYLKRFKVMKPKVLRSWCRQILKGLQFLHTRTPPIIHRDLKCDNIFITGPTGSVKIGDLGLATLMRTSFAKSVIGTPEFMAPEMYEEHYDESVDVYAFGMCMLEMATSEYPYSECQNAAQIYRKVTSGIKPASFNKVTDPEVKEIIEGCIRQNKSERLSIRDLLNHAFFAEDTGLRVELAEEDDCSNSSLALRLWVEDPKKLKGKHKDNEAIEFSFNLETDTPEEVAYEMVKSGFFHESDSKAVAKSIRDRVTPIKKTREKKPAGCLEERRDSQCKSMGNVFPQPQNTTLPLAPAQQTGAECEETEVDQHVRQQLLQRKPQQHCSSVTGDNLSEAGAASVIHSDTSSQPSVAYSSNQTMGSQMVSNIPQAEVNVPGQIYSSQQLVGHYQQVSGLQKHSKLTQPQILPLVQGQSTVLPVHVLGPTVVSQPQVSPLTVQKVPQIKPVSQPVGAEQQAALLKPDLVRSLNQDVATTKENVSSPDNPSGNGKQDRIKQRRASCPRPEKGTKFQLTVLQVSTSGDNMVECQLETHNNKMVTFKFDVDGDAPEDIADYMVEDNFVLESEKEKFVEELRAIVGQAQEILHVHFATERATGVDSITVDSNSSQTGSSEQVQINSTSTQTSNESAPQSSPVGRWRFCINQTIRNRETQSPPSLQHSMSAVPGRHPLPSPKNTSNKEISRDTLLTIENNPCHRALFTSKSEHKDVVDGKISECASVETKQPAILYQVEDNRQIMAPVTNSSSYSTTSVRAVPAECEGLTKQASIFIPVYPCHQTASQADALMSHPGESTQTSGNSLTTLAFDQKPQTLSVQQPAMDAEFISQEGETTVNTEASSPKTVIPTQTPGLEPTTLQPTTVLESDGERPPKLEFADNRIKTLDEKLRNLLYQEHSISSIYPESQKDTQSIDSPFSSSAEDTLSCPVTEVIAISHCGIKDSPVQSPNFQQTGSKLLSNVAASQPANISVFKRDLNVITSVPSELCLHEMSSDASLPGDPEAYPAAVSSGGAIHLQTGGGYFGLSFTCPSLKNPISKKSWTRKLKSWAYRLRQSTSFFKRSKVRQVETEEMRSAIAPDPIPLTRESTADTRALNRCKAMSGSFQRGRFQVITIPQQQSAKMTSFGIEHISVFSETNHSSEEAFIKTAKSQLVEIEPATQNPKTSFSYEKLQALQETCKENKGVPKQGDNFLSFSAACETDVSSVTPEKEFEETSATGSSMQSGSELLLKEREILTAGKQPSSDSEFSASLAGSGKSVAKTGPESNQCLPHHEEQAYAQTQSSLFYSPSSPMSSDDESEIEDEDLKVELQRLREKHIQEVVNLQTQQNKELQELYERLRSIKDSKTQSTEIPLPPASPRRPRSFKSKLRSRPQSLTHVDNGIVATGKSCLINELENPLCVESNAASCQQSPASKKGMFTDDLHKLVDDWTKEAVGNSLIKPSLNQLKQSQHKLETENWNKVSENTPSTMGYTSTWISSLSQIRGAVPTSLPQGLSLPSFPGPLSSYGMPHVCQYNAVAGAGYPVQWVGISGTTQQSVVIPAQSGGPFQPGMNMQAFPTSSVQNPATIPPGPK
# T9 sequence (P16234 24-1089 V561D): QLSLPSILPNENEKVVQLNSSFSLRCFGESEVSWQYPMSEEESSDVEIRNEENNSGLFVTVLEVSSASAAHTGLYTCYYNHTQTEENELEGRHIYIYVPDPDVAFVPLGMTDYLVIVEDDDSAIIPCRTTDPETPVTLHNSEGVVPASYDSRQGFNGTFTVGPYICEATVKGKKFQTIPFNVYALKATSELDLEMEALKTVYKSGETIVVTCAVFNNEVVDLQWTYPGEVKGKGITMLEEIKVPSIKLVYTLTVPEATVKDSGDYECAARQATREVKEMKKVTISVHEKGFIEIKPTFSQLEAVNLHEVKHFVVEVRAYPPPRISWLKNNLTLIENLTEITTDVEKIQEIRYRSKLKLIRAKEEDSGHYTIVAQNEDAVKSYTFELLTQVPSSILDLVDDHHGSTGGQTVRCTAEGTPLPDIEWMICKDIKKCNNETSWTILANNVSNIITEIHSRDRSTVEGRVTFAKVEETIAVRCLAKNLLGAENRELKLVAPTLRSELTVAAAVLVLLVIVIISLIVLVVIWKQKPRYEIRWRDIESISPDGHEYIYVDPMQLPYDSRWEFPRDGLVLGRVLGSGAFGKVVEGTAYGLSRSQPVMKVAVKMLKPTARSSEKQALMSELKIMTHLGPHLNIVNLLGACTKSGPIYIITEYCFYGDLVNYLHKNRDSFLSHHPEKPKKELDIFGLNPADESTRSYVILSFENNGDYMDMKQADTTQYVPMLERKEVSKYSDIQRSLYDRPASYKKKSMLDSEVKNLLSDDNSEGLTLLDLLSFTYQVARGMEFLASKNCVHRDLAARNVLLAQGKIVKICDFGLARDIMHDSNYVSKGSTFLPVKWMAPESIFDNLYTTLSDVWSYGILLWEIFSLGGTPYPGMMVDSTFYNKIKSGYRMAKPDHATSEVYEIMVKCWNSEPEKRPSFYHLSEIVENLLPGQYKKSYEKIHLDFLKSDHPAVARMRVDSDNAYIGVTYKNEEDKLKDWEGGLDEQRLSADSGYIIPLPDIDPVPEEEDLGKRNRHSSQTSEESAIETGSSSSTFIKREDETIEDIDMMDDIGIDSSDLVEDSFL
# T4 sequence (O96017 whole entry I157T): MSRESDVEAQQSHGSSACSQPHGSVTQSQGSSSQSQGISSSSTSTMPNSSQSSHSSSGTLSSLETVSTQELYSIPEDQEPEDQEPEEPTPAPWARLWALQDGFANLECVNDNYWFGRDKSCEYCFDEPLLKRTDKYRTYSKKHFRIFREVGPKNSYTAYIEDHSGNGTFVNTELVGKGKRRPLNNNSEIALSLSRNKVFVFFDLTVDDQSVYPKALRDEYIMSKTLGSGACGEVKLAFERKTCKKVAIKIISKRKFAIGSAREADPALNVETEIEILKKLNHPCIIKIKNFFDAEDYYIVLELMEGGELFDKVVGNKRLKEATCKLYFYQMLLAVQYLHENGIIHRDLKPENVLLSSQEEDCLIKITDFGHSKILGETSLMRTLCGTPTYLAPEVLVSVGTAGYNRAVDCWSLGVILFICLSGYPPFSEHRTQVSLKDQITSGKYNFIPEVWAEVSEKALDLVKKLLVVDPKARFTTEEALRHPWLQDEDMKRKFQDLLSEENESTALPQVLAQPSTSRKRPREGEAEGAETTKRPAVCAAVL
# T3 sequence (Q05655 whole entry): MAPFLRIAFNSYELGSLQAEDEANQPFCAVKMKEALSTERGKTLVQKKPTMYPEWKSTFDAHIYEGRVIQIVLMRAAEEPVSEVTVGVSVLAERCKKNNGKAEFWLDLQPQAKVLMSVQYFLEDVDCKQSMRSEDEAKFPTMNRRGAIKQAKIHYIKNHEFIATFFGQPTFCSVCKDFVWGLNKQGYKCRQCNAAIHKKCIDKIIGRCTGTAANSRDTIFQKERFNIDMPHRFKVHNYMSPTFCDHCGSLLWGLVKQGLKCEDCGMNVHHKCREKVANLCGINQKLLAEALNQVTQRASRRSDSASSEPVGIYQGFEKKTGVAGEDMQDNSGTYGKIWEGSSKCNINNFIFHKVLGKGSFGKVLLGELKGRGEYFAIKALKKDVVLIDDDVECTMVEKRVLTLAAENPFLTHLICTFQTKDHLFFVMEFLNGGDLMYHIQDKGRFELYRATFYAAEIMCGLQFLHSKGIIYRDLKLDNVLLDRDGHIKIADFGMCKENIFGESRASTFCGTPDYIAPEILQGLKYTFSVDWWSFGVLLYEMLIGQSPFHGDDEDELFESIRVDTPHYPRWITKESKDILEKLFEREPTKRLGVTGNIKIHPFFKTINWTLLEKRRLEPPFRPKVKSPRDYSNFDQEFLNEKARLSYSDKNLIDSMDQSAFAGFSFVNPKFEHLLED
Sequence,% activity (PRK2 (h)),% activity (GRK6 (h)),% activity (PKCε (h)),% activity (WNK3 (h)),% activity (PKCδ (h)),% activity (CHK2(I157T) (h)),% activity (TAO1 (h)),% activity (SGK2 (h)),% activity (Hck (h)),% activity (cKit(V654A) (h)),% activity (PDGFRα (V561D) (h))
YARAAARQARAKALNRQLGVA (Mammalian) [MMI-0200],74%,132%,98%,97%,101%,85%,,,,,
HRRIKAWLKKIKALARQLGVAA (Mammalian) [MMI-0500],7%,174%,23%,9%,61%,3%,24%,−1%,78%,223%,146%
FAKLAARLYRKALARQLGVAA [MMI-0300],33%,147%,79%,77%,101%,43%,82%,56%,72%,134%,82%
KAFAKLAARLYRKALARQLGVAA [MMI-0400],27%,141%,59%,74%,90%,41%,73%,98%,72%,150%,100%
